The subject of data set [1] is BpsA, single module non-ribosomal peptide synthetase of Streptomyces lavendulae ATCC 11924, purified recombinant 6His-tagged protein (apo form).
Data set [2] deals with wild type BpsA reporter expressed in E. coli BL21(DE3) from a pCDFDuet-based plasmid (slBPSA).
Data set [3] has as its system E. coli harbouring an activating PPTase. As to the kind of experiment: In vivo pigment synthesis activity of BpsA derivatives relative to wild type BpsA. The data set is classed as cell-based. The conditions noted are these: E. coli, supernatant A590. From the text:
A detailed description of the method used for generation of mBpsA derivatives is given in Section 4.15. Briefly, a plasmid containing bpsA lacking its native T-domain (pBPSA3) was created. This plasmid contained restriction enzyme sites which were subsequently used to introduce foreign T-domain sequence. Foreign T-domains were then amplified from the chromosomal DNA of their host organisms and introduced into pBPSA3 to generate mBpsA derivatives which contained T-domains from foreign NRPS proteins in place of the native T-domain. Only the final embodiment of the T-domain swapping platform is described in this application. This embodiment is the result of rational in-silico design as well as trial and error, which are not described. Using this final platform, five different mBpsA derivatives were generated and subsequently assessed for in vivo pigment synthesis capacity in E. coli harbouring an activating PPTase. Table 3.1 gives a summary of the mBpsA derivatives generated as well as their in vivo pigment synthesis activities relative to wild type BpsA. The derivation of in vivo pigment synthesis activity was as described in 4.10.
For second tier screening, up to 45 improved clones, along with a positive and negative control, were stored as duplicate glycerol stocks in a 96wp. From this plate duplicate overnight cultures were established in LB supplemented with 0.4% glucose and appropriate antibiotics. […] Overnight cultures were grown for 16-20 h (37° C. 200 rpm) before transfer of 20 μl of each culture into a fresh well containing 130 μL LB supplemented with 115 mM L-Gln, 0.6 mM IPTG and appropriate antibiotics. Assay plates set up in this fashion contained duplicate cultures for each clone from two separate overnights. Assay plates were then wrapped in foil and incubated for 6-24 h (18° C., 200 rpm), depending on activity of improved clones. After incubation cells were collected at the corner of each well by centrifugation and OD 590 values determined using a microplate reader. Assays were repeated at least twice before determination of clones for sequence analysis.
In vivo pigment synthesis efficiencies for recombinant BpsA proteins described in Section 3.2 were derived from three separate assays. This was necessary due to the fact that pigment synthesis of wild type BpsA saturate before activity of mBpsA derivatives was detectable. Replicate cultures for determination of in vivo pigment synthesis activity were established from overnight starter cultures in a 96 wp as described in Section 4.9.3 The values presented are derived as follows: quadruplicate values for WT BpsA and oBpsA (mutant with reduced activity) were determined after 3 h, at which point pigment production was not saturated for WT. A separate quadruplicate assay was then run to obtain a value for slEntF by comparison to oBpsA after 12 h. Quadruplicate values for slPsT and slPvdD2 were then obtained in a separate assay by comparison to slEntF after 12 h.

Consider “Sfp, phosphopantetheinyl transferase of Bacillus subtilis subsp. spizizenii ATCC6633”, for which, in data set [1], the Km (BpsA as variable substrate), BpsA coupled indigoidine assay came out at 3.3 µM; the kcat (BpsA as variable substrate), BpsA coupled indigoidine assay was determined as 0.0357 s⁻¹; the kcat/Km (BpsA as variable substrate), BpsA coupled indigoidine assay turned out to be 10800 M⁻¹ s⁻¹. The “production of indigoidine on co-expression in E. coli BL21(DE3)” value in data set [2] was “co-expression of BpsA with any of the three PPTases selected (Sfp, PcpS and PP1183) resulted in substantial production of indigoidine”.
“PP1183, putative phosphopantetheinyl transferase of Pseudomonas putida KT2440”: in data set [1], the Km (BpsA as variable substrate), BpsA coupled indigoidine assay amounted to 8.6 µM; the kcat (BpsA as variable substrate), BpsA coupled indigoidine assay turned out to be 0.185 s⁻¹; the kcat/Km (BpsA as variable substrate), BpsA coupled indigoidine assay worked out at 21500 M⁻¹ s⁻¹. In addition, in data set [2], the “production of indigoidine on co-expression in E. coli BL21(DE3)” value was “co-expression of BpsA with any of the three PPTases selected (Sfp, PcpS and PP1183) resulted in substantial production of indigoidine”.

B1: slPsT1: mBpsA with T-domain from pspph1926 gene of P. syringae 1448a; SEQ ID NO: 9 (protein)
chain: MTLQETSVLEPTLQGTTTLPGLLAQRVAEHPEAIAVAYRDDKLTFRELASRSAALADYLEHLGVSADDCVGLFVEPSIDLMVGAWGILNAGAAYLPLSPEYPEDRLRYMIENSETKIILAQQRLVSRLRELAPKDVTIVTLRESEAFVRPEGTEAPAARSARPDTLAYVIYTSGSTGKPKGVMIEHRSIVNQLGWLRETYAIDRSKVILQKTPMSFDAAQWEILSPANGATVVMGAPGVYADPEGLIETIVKHNVTTLQCVPTLLQGLIDTEKFPECVSLQQIFSGGEALSRLLAIQTTQEMPGRALINVYGPTETTINSSSFPVDPADLDEGPQSISIGSPVHGTTYHILDKETLKPVGVGEIGELYIGGIQLARGYLHRDDLTAERFLEIELEEGAEPVRLYKTGDLGQWNNDGTVQFAGRADNQVKLRGYRVELDEISLAIENHDWVRNAAVIVKNDGRTGFQNLIACIELSEKEAALMDQGNHGSHHASKKSKLQVKAQLSNPGLRDDAELAARPAFDLEGAEPTPEQRARVFARKTYRFYEGGAVTQADLLGLLGATVTAGYSRKAADLAPAELGQILRWFGQYISEERLLPKYGYASPGALYATQMYFELEGVGGLKPGYYYYQPVRHQLVLISEREATGKATAQIHFIGKKSGIEPVYKNNILEVLEIETGHMVGLFEQILPAYGLDIHDRAYEPAVKDLLDVADEDYYLGTFELVPHAGARDDQAEVYVQTHGGKVAGLPEGQYRYENGELTRFSDDIVLKKHVIAINQSVYQAASFGISVYSRAEEEWLKYITLGKKLQHLMMNGLNLGFMSSGYSSKTGNPLPASRRMDAVLGANGVDSAPMYFFVGGRISDEQIGHEGMREDSVHMRGPAELIRDDLVSFLPDYMIPNRVVVFDRLPLSANGKIDVKALAASDQVNAELVERPHVAPRTEFEQRLAALWEQVLQVERVGLNDNFFALGGHSLLAVSLAGRIRETFDVSIKLHDFLLMQTLGELADFMRREVAQESSRFVRLHAETGKARPVICWPGLGGYPMNLRSLAGEIGLGRSFYGVQSYGINEGETPYETITEMAKKDIEALKEIQPAGPYTLWGYSFGARVAFETAYQLEQAGEKVDNLFLIAPGSPKVRAENGKVWGREASFANRGYTTILFSVFTGTISGPDLDRCLETVTDEASFAEFISELKGIDVDLARRIISVVGQTYEFEYSFHELAERTLQAPISIFKAVGDDYSFLENSSGYSAEPPTVIDLDADHYSLLREDIGELVKHIRYLLGE
B1: in data set [3], the “Relative activity (in vivo pigment synthesis relative to wild type BpsA)” value was approximately 5%.

B2: slPvdD2: mBpsA with T-domain from second module of pvdD of P. aeruginosa PAO1; SEQ ID NO: 7 (protein)
chain: MTLQETSVLEPTLQGTTTLPGLLAQRVAEHPEAIAVAYRDDKLTFRELASRSAALADYLEHLGVSADDCVGLFVEPSIDLMVGAWGILNAGAAYLPLSPEYPEDRLRYMIENSETKIILAQQRLVSRLRELAPKDVTIVTLRESEAFVRPEGTEAPAARSARPDTLAYVIYTSGSTGKPKGVMIEHRSIVNQLGWLRETYAIDRSKVILQKTPMSFDAAQWEILSPANGATVVMGAPGVYADPEGLIETIVKHNVTTLQCVPTLLQGLIDTEKFPECVSLQQIFSGGEALSRLLAIQTTQEMPGRALINVYGPTETTINSSSFPVDPADLDEGPQSISIGSPVHGTTYHILDKETLKPVGVGEIGELYIGGIQLARGYLHRDDLTAERFLEIELEEGAEPVRLYKTGDLGQWNNDGTVQFAGRADNQVKLRGYRVELDEISLAIENHDWVRNAAVIVKNDGRTGFQNLIACIELSEKEAALMDQGNHGSHHASKKSKLQVKAQLSNPGLRDDAELAARPAFDLEGAEPTPEQRARVFARKTYRFYEGGAVTQADLLGLLGATVTAGYSRKAADLAPAELGQILRWFGQYISEERLLPKYGYASPGALYATQMYFELEGVGGLKPGYYYYQPVRHQLVLISEREATGKATAQIHFIGKKSGIEPVYKNNILEVLEIETGHMVGLFEQILPAYGLDIHDRAYEPAVKDLLDVADEDYYLGTFELVPHAGARDDQAEVYVQTHGGKVAGLPEGQYRYENGELTRFSDDIVLKKHVIAINQSVYQAASFGISVYSRAEEEWLKYITLGKKLQHLMMNGLNLGFMSSGYSSKTGNPLPASRRMDAVLGANGVDSAPMYFFVGGRISDEQIGHEGMREDSVHMRGPAELIRDDLVSFLPDYMIPNRVVVFDRLPLSANGKIDVKALAASDQVNAELVERPYRAPGSELEQRIAAIWAEILGVERVGLDDNFFELGGHSLLLLMLKERIGDTCQATLSISQLMTHASVAEQAACIEREVAQESSRFVRLHAETGKARPVICWPGLGGYPMNLRSLAGEIGLGRSFYGVQSYGINEGETPYETITEMAKKDIEALKEIQPAGPYTLWGYSFGARVAFETAYQLEQAGEKVDNLFLIAPGSPKVRAENGKVWGREASFANRGYTTILFSVFTGTISGPDLDRCLETVTDEASFAEFISELKGIDVDLARRIISVVGQTYEFEYSFHELAERTLQAPISIFKAVGDDYSFLENSSGYSAEPPTVIDLDADHYSLLREDIGELVKHIRYLLGE
For the molecule B2, the “Relative activity (in vivo pigment synthesis relative to wild type BpsA)” value in data set [3] is approximately 5%.

The values above are taken from patent US20130260436A1, “Methods of Identifying and Characterizing Natural Product Gene Clusters” (Victoria LInk Limited, priority 2010, published 2013).
